{
  "source": "patent US20050207981A1",
  "about": "“Compositions and methods for determining substrate specificity of hydrolytic enzymes” (The Regents of the University of California, priority 2003, published 2005)",
  "test_system": "C[C@H](NC(=O)[C@H](C)NC(=O)[C@H](CCCNC(=N)N)NC(=O)[C@H](CCCNC(=N)N)NC(=O)c1cc(F)ccc1O)C(N)=O",
  "experiment": "purified protein, by the assay type",
  "details": "other: detailed kinetic analysis of substrate hydrolysis; pH 8.0; 25.0 °C",
  "protocol": "The combinatorial tetrapeptide library thus obtained was used to assay the substrate specificity of bovine p-chymotrypsin as follows. A 1 μL aliquot of each library member in DMSO was diluted to 100 μL in one well of a black polystyrene 96-well plate with a solution containing 50 mM Tris-HCl pH 8.0, 100 mM NaCl, 20 mM CaCl2, 10 μM [Tb(EDTA)]+and 10 μM enzyme. The resulting mixture was allowed to react at 25° C. for 30 min. Hydrolysis was followed by observing the increase in fluorescence at 546 nm upon excitation at 250 nm.\nTo elucidate any cooperativity between subsites, a series of single substrates was synthesized and assayed with chymotrypsin. […] Peptide sequences were designed to compare the most reactive amino acid in each sublibrary (Arg) with an amino acid with moderate reactivity and neutral functionality (Ala). Alanine, a small, neutral amino acid, was included in the P4′ position in all peptides, providing extended backbone interactions to enhance turnover. The kinetic data obtained from single substrate hydrolysis were analyzed using the standard Michaelis-Menten equation.",
  "data": [
    {"substance": "bovine α-chymotrypsin (Bos taurus)", "values": [
      {"measurement": "Km", "value": "500 ± 100", "unit": "µM"},
      {"measurement": "kcat", "value": "2.2 ± 0.2", "unit": "s⁻¹"},
      {"measurement": "kcat/Km", "value": "4400 ± 1000", "unit": "M⁻¹ s⁻¹"}
    ]}
  ]
}
